Starred links: 1 amine or outer side, 2 acyl side, 3 side chain; linkers in the order of their positions; H or OH if unused. Positions of bridges follow the written chain, without caps; N, C: chain ends. Non-standard residues stand in square brackets, D forms with d. Primed or numbered codes have the meaning given here. B5(17) = 2,2-bis(4-pentenyl)glycine = 2-amino-2-(pent-4-en-1-yl)hept-6-enoic acid, stitching residue, C=CCCCC(CCCC=C)(N[*:1])C(=O)[*:2]; B5(24) = 2-amino-2-(pent-4-en-1-yl)hept-6-enoic acid, 2,2-bis(4-pentenyl)glycine (stitching residue), C=CCCCC(CCCC=C)(N[*:1])C(=O)[*:2]; B5(4) = 2,2-bis(4-pentenyl)glycine = 2-amino-2-(pent-4-en-1-yl)hept-6-enoic acid (stitching residue), C=CCCCC(CCCC=C)(N[*:1])C(=O)[*:2]; PyrS = (S)-1-((allyloxy)carbonyl)-3-aminopyrrolidine-3-carboxylic acid, C=CCOC(=O)N1CC[C@@](N[*:1])(C(=O)[*:2])C1; B5 = 2-amino-2-(pent-4-en-1-yl)hept-6-enoic acid, C=CCCCC(CCCC=C)(N[*:1])C(=O)[*:2]; Phe(3-F) = N[C@@H](Cc1cccc(F)c1)C(=O)O; Bta = N[C@@H](Cc1csc2ccccc12)C(=O)O; hTyr = N[C@@H](CCc1ccc(O)cc1)C(=O)O; αAllylPro = C=CC[C@@]1(C(=O)O)CCCN1; hPhe = N[C@@H](CCc1ccccc1)C(=O)O; R8 = C=CCCCCCC[C@@](C)(N)C(=O)O; S8 = C=CCCCCCC[C@](C)(N)C(=O)O
T1: full-length beta-Catenin (Uniprot ID P35222) (Homo sapiens (Human), UniProt P35222 1-781)
T1 construct: The assay text says 'full-length beta-Catenin (Uniprot ID P35222)'; also called bCat; B-Catenin
T1 sequence: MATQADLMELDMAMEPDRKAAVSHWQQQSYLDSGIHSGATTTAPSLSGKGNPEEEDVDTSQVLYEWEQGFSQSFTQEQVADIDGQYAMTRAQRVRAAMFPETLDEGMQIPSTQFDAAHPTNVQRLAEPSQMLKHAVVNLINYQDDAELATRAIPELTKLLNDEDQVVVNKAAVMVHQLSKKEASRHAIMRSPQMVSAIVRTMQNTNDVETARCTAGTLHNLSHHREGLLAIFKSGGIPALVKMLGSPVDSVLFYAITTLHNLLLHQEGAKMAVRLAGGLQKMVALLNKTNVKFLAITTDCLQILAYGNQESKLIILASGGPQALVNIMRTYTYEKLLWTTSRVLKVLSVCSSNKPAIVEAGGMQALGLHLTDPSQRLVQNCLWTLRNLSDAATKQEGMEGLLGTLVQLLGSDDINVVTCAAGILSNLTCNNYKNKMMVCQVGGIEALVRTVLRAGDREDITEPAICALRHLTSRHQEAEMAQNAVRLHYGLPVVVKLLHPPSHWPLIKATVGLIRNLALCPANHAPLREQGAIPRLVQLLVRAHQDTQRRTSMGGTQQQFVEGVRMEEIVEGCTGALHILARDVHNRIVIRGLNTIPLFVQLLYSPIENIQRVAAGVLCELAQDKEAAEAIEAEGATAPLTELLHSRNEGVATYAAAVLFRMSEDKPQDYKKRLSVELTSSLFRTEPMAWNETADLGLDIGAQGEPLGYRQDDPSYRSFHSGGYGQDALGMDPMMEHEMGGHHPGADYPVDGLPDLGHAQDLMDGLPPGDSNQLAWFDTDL

T2: full-length beta-Catenin (Uniprot ID P35222) (Homo sapiens (Human), UniProt P35222 1-781)
T2 construct: The assay protocols call it full-length; also called B-Catenin; bCat
T2 sequence: T1 sequence

B1: I-576 (peptide)
peptide: XDLXDEAAFNXFXQ
modifications: not fully specified; Ac-PL3-Asp-Leu-B5-Asp-Glu-Ala-Ala-Phe-Asn-S8-Phe-BztA-Gln-NH2; stapled PL3(1)-B5(4) and B5(4)-S8(11) by olefin metathesis
notes: Stapled peptide composition; same description as I-577, earlier eluting HPLC peak (staple isomer)
B2: I-579 (peptide)
peptide: Ac-FDA[R8]DDAAFQ[PyrS]FWQ-NH2
modifications: staple 4-11; not fully specified; printed as Ac-Phe-Asp-Ala-R8-Asp-Asp-Ala-Ala-Phe-Gln-PyrS-Phe-Trp-Gln-NH2
notes: Stapled peptide composition
B3: I-577 (peptide)
peptide: XDLXDEAAFNXFXQ
modifications: not fully specified; Ac-PL3-Asp-Leu-B5-Asp-Glu-Ala-Ala-Phe-Asn-S8-Phe-BztA-Gln-NH2; stapled PL3(1)-B5(4) and B5(4)-S8(11) by olefin metathesis
notes: Stapled peptide composition; same description as I-576, later eluting HPLC peak (staple isomer)
B4: I-586 (peptide)
peptide: Ac-[αAllylPro]DI[B5(24)]DEAA[Bta]Q[S8]FFQ-NH2
modifications: staple 1-4, 4-11; not fully specified; printed as Ac-PL3-Asp-Ile-B5-Asp-Glu-Ala-Ala-BztA-Gln-S8-Phe-Phe-Gln-NH2
notes: Stapled peptide composition
B5: I-578 (peptide)
peptide: XDAXDDAAFQXFXQ
modifications: not fully specified; Ac-PL3-Asp-Ala-B5-Asp-Asp-Ala-Ala-Phe-Gln-S8-Phe-BztA-Gln-NH2; stapled PL3(1)-B5(4) and B5(4)-S8(11) by olefin metathesis
notes: Stapled peptide composition; the description may be misprinted
B6: I-581 (peptide)
peptide: XDIXDDAAFQXFXH
modifications: not fully specified; Ac-PL3-Asp-Ile-B5-Asp-Asp-Ala-Ala-Phe-Gln-S8-Phe-BztA-His-NH2; stapled PL3(1)-B5(4) and B5(4)-S8(11) by olefin metathesis
notes: Stapled peptide composition; same description as I-580, later eluting HPLC peak (staple isomer)
B7: I-273 (peptide)
peptide: Ac-[αAllylPro]DA[B5(17)]D[hTyr]AAFV[S8]FWQ-NH2
modifications: staple 1-4, 4-11
notes: Stapled (stitched) peptide; also called Ac-PL3-Asp-Ala-B5-Asp-hTyr-Ala-Ala-Phe-Val-S8-Phe-Trp-Gln-NH2
B8: I-269 (peptide)
peptide: Ac-[αAllylPro]DA[B5(17)]DDAAFV[S8][hTyr]WQ-NH2
modifications: staple 1-4, 4-11
notes: Stapled (stitched) peptide; also called Ac-PL3-Asp-Ala-B5-Asp-Asp-Ala-Ala-Phe-Val-S8-hTyr-Trp-Gln-NH2
B9: I-268 (peptide)
peptide: Ac-[αAllylPro]DA[B5(17)]DDAAFV[S8][hPhe]WQ-NH2
modifications: staple 1-4, 4-11
notes: Stapled (stitched) peptide; also called Ac-PL3-Asp-Ala-B5-Asp-Asp-Ala-Ala-Phe-Val-S8-hPhe-Trp-Gln-NH2
B10: I-257 (peptide)
peptide: Ac-[αAllylPro]DA[B5(4)]D[Phe(3-F)]AAFV[S8]FWQ-NH2
modifications: staple 1-4, 4-11
notes: Stapled (stitched) peptide; also called Ac-PL3-Asp-Ala-B5-Asp-3FF-Ala-Ala-Phe-Val-S8-Phe-Trp-Gln-NH2
B11: I-279 (peptide)
peptide: XEAXDDAAFVXFWQ
modifications: not fully specified; N-terminal Ac; PL3 at 1; B5 at 4; S8 at 11; C-terminal NH2; staples PL3(1)-B5(4) and B5(4)-S8(11) by olefin metathesis
notes: Stapled (stitched) peptide; also called Ac-PL3-Glu-Ala-B5-Asp-Asp-Ala-Ala-Phe-Val-S8-Phe-Trp-Gln-NH2
B12: I-284 (peptide)
peptide: Ac-[αAllylPro]DA[B5(4)]DDAAFV[S8]NWQ-NH2
modifications: staple 1-4, 4-11
notes: Stapled (stitched) peptide; also called Ac-PL3-Asp-Ala-B5-Asp-Asp-Ala-Ala-Phe-Val-S8-Asn-Trp-Gln-NH2
B13: I-282 (peptide)
peptide: XDAXEDAAFVXFWQ
modifications: not fully specified; N-terminal Ac; PL3 at 1; B5 at 4; S8 at 11; C-terminal NH2; staples PL3(1)-B5(4) and B5(4)-S8(11) by olefin metathesis
notes: Stapled (stitched) peptide; also called Ac-PL3-Asp-Ala-B5-Glu-Asp-Ala-Ala-Phe-Val-S8-Phe-Trp-Gln-NH2
B14: I-283 (peptide)
peptide: Ac-[αAllylPro]DA[B5(4)]DDAAFV[S8]DWQ-NH2
modifications: staple 1-4, 4-11
notes: Stapled (stitched) peptide; also called Ac-PL3-Asp-Ala-B5-Asp-Asp-Ala-Ala-Phe-Val-S8-Asp-Trp-Gln-NH2

Molecular target: T1, full-length beta-Catenin (Uniprot ID …)
Assay: fluorescence polarization competition; full-length beta-catenin, competitor 5FAM-TCF4(10-53) probe
Procedure: (§1) The plate was incubated protected from light for 60 minutes at 20° C. prior to read. Reads were performed on a CLARIOstar plate reader (BMG Labtech) in duplicate, and data were fitted to a 1:1 binding model with hill slope using an in-house script. All provided concentrations are final concentrations.

Binder	EC50
B1	0.023 µM
B2	5 µM
B3	0.013 µM
Ac-[αAllylPro]FI[B5(24)]DEAADQ[S8]F[Bta]Q-NH2 (staple 1-4, 4-11, Stapled peptide composition) [I-588]	5 µM
B4	5 µM
Ac-[αAllylPro]DI[B5(24)]FEAAFQ[S8]D[Bta]Q-NH2 (staple 1-4, 4-11, Stapled peptide composition) [I-587]	5 µM
Ac-[αAllylPro]DI[B5]DDAAFQ[S8]F[Bta]H-NH2 (staple 1-4, 4-11; not fully specified, Stapled peptide composition) [I-580]	0.114 µM
B5	5 µM
B6	0.112 µM
Ac-[αAllylPro]DI[B5(24)]DEAA[Bta]Q[S8]FFQ-NH2 (staple 1-4, 4-11; not fully specified, Stapled peptide composition) [I-585]	5 µM

Molecular target: T2, full-length beta-Catenin (Uniprot ID …)
Assay: AlphaScreen competition; full-length beta-catenin with biotin-labelled TCF4 10-53 peptide as competitor
Procedure: as §1, with “Equal volume of the titrated peptide was added to the” for “The”, “and” for “was”, “incubated for 15 minutes at 20° C. Then 4 uL of donor and 4 uL acceptor beads at 10 ug/mL were added to the plate, for a 16 uL reaction pool and” for “incubated”

Binder	EC50
B7	1.89 µM
B8	5.31 µM
B9	4 µM
B10	3.81 µM
B11	4.96 µM
B12	4.35 µM
B13	3.53 µM
B14	9.54 µM
